Source: publication doi:10.1101/2023.06.07.544024 (bioRxiv, 2023)

Molecular target: FtsH (E. coli, UniProt P0AAI3 1-644)
Assay: cross-linking

Sequence of FtsH (P0AAI3 whole entry): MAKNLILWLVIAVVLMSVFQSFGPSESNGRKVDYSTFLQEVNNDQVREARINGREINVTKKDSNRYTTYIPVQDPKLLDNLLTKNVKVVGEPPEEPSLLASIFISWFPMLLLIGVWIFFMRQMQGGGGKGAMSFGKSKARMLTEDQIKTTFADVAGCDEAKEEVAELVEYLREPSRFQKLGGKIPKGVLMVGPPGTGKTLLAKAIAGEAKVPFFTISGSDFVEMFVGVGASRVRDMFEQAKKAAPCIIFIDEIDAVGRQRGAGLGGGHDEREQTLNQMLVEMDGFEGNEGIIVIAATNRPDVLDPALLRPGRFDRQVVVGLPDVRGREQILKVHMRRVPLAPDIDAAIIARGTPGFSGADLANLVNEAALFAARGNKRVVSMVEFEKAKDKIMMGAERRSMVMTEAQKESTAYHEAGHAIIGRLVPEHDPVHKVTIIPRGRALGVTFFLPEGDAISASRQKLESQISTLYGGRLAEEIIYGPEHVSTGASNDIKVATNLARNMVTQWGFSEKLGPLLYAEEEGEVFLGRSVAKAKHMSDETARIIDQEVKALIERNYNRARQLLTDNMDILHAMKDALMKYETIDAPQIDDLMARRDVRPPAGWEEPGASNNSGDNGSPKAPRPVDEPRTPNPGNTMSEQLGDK

Row | binding result | Binder
1 | binds | HflK (natural protein, E. coli) MAWNQPGNNGQDRDPWGSSKPGGNSEGNGNKGGRDQGPPDLDDIFRKLSKKLGGLGGGKGTGSGGGSSSQGPRPQLGGRVVTIAAAAIVIIWAASGFYTIKEAERGVVTRFGKFSHLVEPGLNWKPTFIDEVKPVNVEAVRELAASGVMLTSDENVVRVEMNVQYRVTNPEKYLYSVTSPDDSLRQATDSALRGVIGKYTMDRILTEGRTVIRSDTQRELEETIRPYDMGITLLDVNFQAARPPEEVKAAFDDAIAARENEQQYIREAEAYTNEVQPRANGQAQRILEEARAYKAQTILEAQGEVARFAKLLPEYKAAPEITRERLYIETMEKVLGNTRKVLVNDKGGNLMVLPLDQMLKGGNAPAAKSDNGASNLLRLPPASSSTTSGASNTSSTSQGDIMDQRRANAQRNDYQRQGE
2 | binds | HflC (natural protein, E. coli) MRKSVIAIIIIVLVVLYMSVFVVKEGERGITLRFGKVLRDDDNKPLVYEPGLHFKIPFIETVKMLDARIQTMDNQADRFVTKEKKDLIVDSYIKWRISDFSRYYLATGGGDISQAEVLLKRKFSDRLRSEIGRLDVKDIVTDSRGRLTLEVRDALNSGSAGTEDEVTTPAADNAIAEAAERVTAETKGKVPVINPNSMAALGIEVVDVRIKQINLPTEVSEAIYNRMRAEREAVARRHRSQGQEEAEKLRATADYEVTRTLAEAERQGRIMRGEGDAEAAKLFADAFSKDPDFYAFIRSLRAYENSFSGNQDVMVMSPDSDFFRYMKTPTSATR
